Results on 78 sequences are retold here after the supplement of paper PMC7877785.

± gives the uncertainty stated by the source.

This data set is described as follows: self-splicing fitness, log relative to wild type (ln ratio); higher = more splicing; Tetrahymena group I intron in knt gene, E. coli kanamycin selection, DiMSum; sequences stand for … in CUCUCU…GGAGGGAAAAGUUAUCAGGCAUGCACCUGGUAGCUAGUCUUUAAACCAAUAGAUUGCAUCGGUUUAAAAGGCAAGACCGUCAAAUUGCGGGAAAGGGGUCAACAGCCGUUCAGUACCAAGUCUCAGGGGAAACUUUGAGAUGGCCUUGCAAAGGGUAUGGUAAUAAGCUGACGGACAUGGUCCUAACCACGCAGCCAAGUCCUAAGUCAACAGAUCUUCUGUUGAUAUGGAUGCAGUUCACAGACUAAAUGUCGGUCGGGGAAGAUGUAUUCUUCUCAUAAGAUAUAGUCGGACCUCUCCUUAAUGGGAGCUAGCGGAUGAAGUGAUGCAACACUGGAGCCGCUGGGAACUAAUUUGUAUGCGAAAGUAUAUUGAUUAGUUUUGGAGUACUCGUGGUCG
The method in brief: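 Pooled colonies went to amplicon sequencing on an Illumina HiSeq 2500 after six replicate transformations. The plates were LB agar with 100 μg/mL carbenicillin, 50 μM IPTG and 0.2% rhamnose, with or without 25 μg/mL kanamycin, incubated overnight at 37°C or 30°C. The E. coli BL21(DE3) library had all eight P1ex-region intron nucleotides randomised, the intron placed in the knt kanamycin-resistance gene on pET-22b(+). DiMSum fitness is the error-weighted combination of replicate fold changes, kanamycin against none, normalised to wild type.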

With AACUAGCAAUAUUACGUCUG, the “self-splicing fitness (ln)” value is -1.86 ± 0.088 (30 °C) and -1.37 ± 0.088 (37 °C).

For UACCAGCAAUAUUACGAUAU, the “self-splicing fitness (ln)” value by setting is: (30 °C) -2.78 ± 0.12; (37 °C) -1.32 ± 0.12. The matching figures for UGUUAGCAAUAUUACGCCGA: -1.18 ± 0.17 and -1.21 ± 0.15. Regarding UGGAAGCAAUAUUACGUCUC, under “37 °C”, the “self-splicing fitness (ln)” value was -2.47 ± 0.32.

On to AUGCAGCAAUAUUACGGUCC, for which the “self-splicing fitness (ln)” value was -1.85 ± 0.16 (30 °C) and -0.88 ± 0.17 (37 °C). The matching figures for GCCCAGCAAUAUUACGUUCU: -1.95 ± 0.079 and -1.18 ± 0.091. For UGACAGCAAUAUUACGCAAG, in that order: -3.51 ± 0.27 and -2.73 ± 0.21. As to GAAAAGCAAUAUUACGUAGG, the “self-splicing fitness (ln)” value was -3.87 ± 0.14 (30 °C) and -1.96 ± 0.11 (37 °C). For CGAGAGCAAUAUUACGACCG, in that order: -3.71 ± 0.43 and -1.84 ± 0.33. With UUCCAGCAAUAUUACGCCCC, where the note is “30 °C”, the “self-splicing fitness (ln)” value was -2.4 ± 0.25. On to GGAAAGCAAUAUUACGCGUG, for which the “self-splicing fitness (ln)” value (30 °C) is -0.941 ± 0.054 and the “self-splicing fitness (ln)” value (37 °C) is -0.486 ± 0.071. The matching figures for UCACAGCAAUAUUACGUGUU: -3.9 ± 0.13 and -2.46 ± 0.11.

Take GGUGAGCAAUAUUACGGAUG: the “self-splicing fitness (ln)” value is, setting by setting: (30 °C) -3.73 ± 0.22; (37 °C) -2.62 ± 0.22.

Turning to GGGCAGCAAUAUUACGCGCU, the “self-splicing fitness (ln)” value is, setting by setting: (30 °C) -2.33 ± 0.19; (37 °C) -1.44 ± 0.35. With CUUAAGCAAUAUUACGAGCC, the “self-splicing fitness (ln)” value (37 °C) was -3.51 ± 0.48. Still for that read-out and setting: the value for CCGGAGCAAUAUUACGCCAU was -2.18 ± 0.35. Regarding CUCAAGCAAUAUUACGAUAU, the “self-splicing fitness (ln)” value was -2.97 ± 0.14 (30 °C) and -1.61 ± 0.14 (37 °C). Regarding CGCCAGCAAUAUUACGGAUC, the “self-splicing fitness (ln)” value (30 °C) is -1.24 ± 0.22 and the “self-splicing fitness (ln)” value (37 °C) is -1.38 ± 0.47. As for AAAGAGCAAUAUUACGGAUC, the “self-splicing fitness (ln)” value reads like this: (30 °C) -2.89 ± 0.2; (37 °C) -2.56 ± 0.15. Consider GUACAGCAAUAUUACGCAGA, for which, where the note is “37 °C”, the “self-splicing fitness (ln)” value is -2.72 ± 0.2. For CUACAGCAAUAUUACGCACU, the “self-splicing fitness (ln)” value is, setting by setting: (30 °C) -3.52 ± 0.21; (37 °C) -3.03 ± 0.4. Consider GAUUAGCAAUAUUACGAGAA, for which, where the note is “37 °C”, the “self-splicing fitness (ln)” value is -1.51 ± 0.3.

Turning to UCUGAGCAAUAUUACGGAGC, the “self-splicing fitness (ln)” value is, setting by setting: (30 °C) -2.77 ± 0.21; (37 °C) -2.92 ± 0.2. The matching figures for AUGUAGCAAUAUUACGUUAA: -3.07 ± 0.22 and -2.3 ± 0.14. For GGCAAGCAAUAUUACGUUGG, in that order: -2.5 ± 0.075 and -2.93 ± 0.12. Consider UCCAAGCAAUAUUACGCGGU, for which the “self-splicing fitness (ln)” value (30 °C) was -2.56 ± 0.13 and the “self-splicing fitness (ln)” value (37 °C) is -1.92 ± 0.16. Regarding AGAGAGCAAUAUUACGUGUC, the “self-splicing fitness (ln)” value (37 °C) was -2.33 ± 0.37. Turning to CUAGAGCAAUAUUACGUCGU, for the setting “30 °C”, the “self-splicing fitness (ln)” value is -3.73 ± 0.42. Regarding GAAUAGCAAUAUUACGAAUA, the “self-splicing fitness (ln)” value is, setting by setting: (30 °C) -1.07 ± 0.17; (37 °C) -1.57 ± 0.22. For the sequence GGUAAGCAAUAUUACGUACU, under “30 °C”, the “self-splicing fitness (ln)” value is -1.82 ± 0.32.

On to AAUUAGCAAUAUUACGAAAG, for which the “self-splicing fitness (ln)” value is -3.12 ± 0.19 (30 °C) and -1.51 ± 0.18 (37 °C). GGUAAGCAAUAUUACGAUAG: the “self-splicing fitness (ln)” value was -3.14 ± 0.2 (30 °C) and -2.14 ± 0.24 (37 °C). Turning to AUCAAGCAAUAUUACGGGCC, the “self-splicing fitness (ln)” value is -2.78 ± 0.2 (30 °C) and -0.86 ± 0.29 (37 °C). For GCAGAGCAAUAUUACGAAUA, in that order: -3.67 ± 0.32 and -2.78 ± 0.26. For GAUAAGCAAUAUUACGGAUU, in that order: -3.19 ± 0.14 and -1.91 ± 0.12. The matching figures for AGCGAGCAAUAUUACGUGUC: -3.1 ± 0.24 and -2.85 ± 0.22. With AGCUAGCAAUAUUACGCACU, the “self-splicing fitness (ln)” value is, setting by setting: (30 °C) -1.19 ± 0.1; (37 °C) -0.466 ± 0.13. On to UCAGAGCAAUAUUACGAUUG, for which the “self-splicing fitness (ln)” value (30 °C) is -4 ± 0.37 and the “self-splicing fitness (ln)” value (37 °C) was -2.41 ± 0.24. For CUUCAGCAAUAUUACGGGUA, in that order: -3.12 ± 0.22 and -3.74 ± 0.28.

Regarding UAGUAGCAAUAUUACGUCGA, the “self-splicing fitness (ln)” value is -1.6 ± 0.17 (30 °C) and -1.24 ± 0.16 (37 °C). The matching figures for ACCAAGCAAUAUUACGUCGC: -3.25 ± 0.19 and -1.27 ± 0.14. The matching figures for CCGAAGCAAUAUUACGUGUG: -2.19 ± 0.059 and -0.959 ± 0.062. For AGGGAGCAAUAUUACGGAAA, in that order: -2.4 ± 0.34 and -2.34 ± 0.42.

For the sequence CUUAAGCAAUAUUACGACUG, the “self-splicing fitness (ln)” value (30 °C) stood at 0.139 ± 0.087 and the “self-splicing fitness (ln)” value (37 °C) was -0.589 ± 0.13. For UCGGAGCAAUAUUACGUGCA, in that order: -0.902 ± 0.17 and -1.03 ± 0.25. For CGCAAGCAAUAUUACGUCAU, in that order: -4.26 ± 0.24 and -2.4 ± 0.17. The matching figures for CAGAAGCAAUAUUACGAGUU: -3.32 ± 0.34 and -2.47 ± 0.3.

Regarding AGGGAGCAAUAUUACGAAUG, the “self-splicing fitness (ln)” value (30 °C) was -3.27 ± 0.3 and the “self-splicing fitness (ln)” value (37 °C) is -2.38 ± 0.39.

As for CCUCAGCAAUAUUACGUGAC, the “self-splicing fitness (ln)” value (30 °C) was -3.76 ± 0.22 and the “self-splicing fitness (ln)” value (37 °C) is -2.66 ± 0.24.

For the sequence UUGUAGCAAUAUUACGCCAA, the “self-splicing fitness (ln)” value (30 °C) is -1.22 ± 0.13 and the “self-splicing fitness (ln)” value (37 °C) is -0.297 ± 0.13. For AUCAAGCAAUAUUACGAUAC, in that order: -4.68 ± 0.39 and -2.17 ± 0.26. The matching figures for CGCAAGCAAUAUUACGGAAC: -3.07 ± 0.21 and -2.87 ± 0.32.

With GCAAAGCAAUAUUACGGACG, the “self-splicing fitness (ln)” value (30 °C) is -1.4 ± 0.091 and the “self-splicing fitness (ln)” value (37 °C) was 0.261 ± 0.14. Regarding CCUGAGCAAUAUUACGCUCC, the “self-splicing fitness (ln)” value (37 °C) is -3.8 ± 0.33. For the sequence CUCCAGCAAUAUUACGUUCA, the “self-splicing fitness (ln)” value by setting is: (30 °C) -3.32 ± 0.29; (37 °C) -2.85 ± 0.25.

Consider GAUUAGCAAUAUUACGCACG, for which the “self-splicing fitness (ln)” value reads like this: (30 °C) -1.36 ± 0.12; (37 °C) -1.14 ± 0.14. In the case of AAUGAGCAAUAUUACGUGGU, the “self-splicing fitness (ln)” value is, setting by setting: (30 °C) -2.41 ± 0.11; (37 °C) -3.49 ± 0.23. The matching figures for GAUCAGCAAUAUUACGCCUA: 0.00222 ± 0.13 and 0.0251 ± 0.12.

For AGUGAGCAAUAUUACGAGUC, the “self-splicing fitness (ln)” value runs as follows: (30 °C) -4.15 ± 0.47; (37 °C) -1.93 ± 0.18.

Take UAUAAGCAAUAUUACGACAA: the “self-splicing fitness (ln)” value runs as follows: (30 °C) 0.0108 ± 0.14; (37 °C) -0.202 ± 0.17. For UGCGAGCAAUAUUACGAUCG, in that order: -2.97 ± 0.27 and -1.38 ± 0.17. For ACUAAGCAAUAUUACGUCUC, in that order: -2.79 ± 0.16 and -0.208 ± 0.14. For the sequence CUAAAGCAAUAUUACGAUAG, the “self-splicing fitness (ln)” value (30 °C) was 0.0858 ± 0.072 and the “self-splicing fitness (ln)” value (37 °C) worked out at 0.313 ± 0.085. For GUACAGCAAUAUUACGAUUA, in that order: -0.7 ± 0.095 and -0.556 ± 0.1. The matching figures for ACCGAGCAAUAUUACGAUGA: -2.47 ± 0.17 and -2.73 ± 0.28. On to CCACAGCAAUAUUACGUGUC, for which the “self-splicing fitness (ln)” value (30 °C) was -3.11 ± 0.15 and the “self-splicing fitness (ln)” value (37 °C) is -2.68 ± 0.16. The matching figures for AGACAGCAAUAUUACGGCGC: -0.893 ± 0.092 and -0.134 ± 0.12. For the sequence AAGCAGCAAUAUUACGGCCA, the “self-splicing fitness (ln)” value was -0.775 ± 0.18 (30 °C) and 0.116 ± 0.25 (37 °C).

In the case of CCAGAGCAAUAUUACGGGUC, the “self-splicing fitness (ln)” value (30 °C) was -3.22 ± 0.43 and the “self-splicing fitness (ln)” value (37 °C) is -1.53 ± 0.28. As for UGACAGCAAUAUUACGAGUG, the “self-splicing fitness (ln)” value reads like this: (30 °C) -1.09 ± 0.054; (37 °C) -0.833 ± 0.077. For AAGUAGCAAUAUUACGAAUC, in that order: -2.13 ± 0.22 and -1.4 ± 0.25. The matching figures for ACAAAGCAAUAUUACGCUUA: -2.37 ± 0.12 and -1.71 ± 0.13. The matching figures for AAGCAGCAAUAUUACGCGGG: -1.43 ± 0.078 and -1.27 ± 0.1. CUGAAGCAAUAUUACGGUGA: the “self-splicing fitness (ln)” value by setting is: (30 °C) -4.38 ± 0.31; (37 °C) -2.6 ± 0.21. The matching figures for UAUUAGCAAUAUUACGAUUA: 0.102 ± 0.13 and -0.402 ± 0.12. As for AGUCAGCAAUAUUACGGAGA, where the note is “37 °C”, the “self-splicing fitness (ln)” value was -1.53 ± 0.38. On to GGAUAGCAAUAUUACGUAAC, for which the “self-splicing fitness (ln)” value runs as follows: (30 °C) -1.66 ± 0.15; (37 °C) -0.538 ± 0.16. The matching figures for CCAUAGCAAUAUUACGACUU: -2.46 ± 0.17 and -3.03 ± 0.32.
